Bridges are numbered along the chain shown (N, C = ends). Where no end group is shown, it is not given here.

The record followed here is US20090124537A1 (THRASOS, published 2009).

The chains are these.
B1: F2-3 (peptide)
peptide: CYFDDSSNVICKKYRS
modifications: disulfide 1-11
notes: also called Peptide F2-3; BMP test agent F2-3
B2: bone morphogenetic protein-7 (ligand, UniProt P18075 293-431, looked up)
chain: STGSKQRSQNRSKTPKNQEALRMANVAENSSSDQRQACKKHELYVSFRDLGWQDWIIAPEGYAAYYCEGECAFPLNSYMNATNHAIVQTLVHFINPETVPKPCCAPTQLNAISVLYFDDSSNVILKKYRNMVVRACGCH
modifications: radio-iodinated (125I, lactoperoxidase method) when used as tracer; glycoprotein
notes: also called BMP-7
B3: extracellular domain (ECD) of the type II receptor daf-4, hexa-histidine tagged (receptor)
chain: WANTLVSKVAQSNGTGTIKVSAPAKPTLRRMDNEEDEVISIECVYYDEMECEKSGDCEITKKTCYSEAHLKAVGCLAVFGLPTQEINSTEPYLKVDKPQYKSLGCMPYQHADSMNCENESSCRQGRSFRGGIGMCCCSTNNCNMPDLIEMVNPSLKKDSDNSALLWASTPSNMDLESLDKSSSRASQPELAPEDPEDVEHHHHHH
modifications: heavily glycosylated
notes: Expressed in CHO cells; also called daf-4 ECD; ECD of daf-4 receptor

The target of assay [1] is T1, BMP-7 receptor of ROS cell plasma membrane fraction (ROS cell type II BMP receptor) (rat).
T1 construct: whole, on cells; Used as a plasma membrane fraction of ROS cells, not as a purified protein; also called BMP-7 receptor-enriched plasma membrane fraction of ROS cells; ROS cell receptor
The experiment in a line: radioligand receptor assay, displacement of 125I-BMP-7 from ROS cell plasma membranes.

The target of assay [2] is T1, BMP-7 receptor of ROS cell plasma …. The experiment in a line: radioligand binding of 125I-BMP-7 to ROS cell receptor-enriched plasma membrane fraction. On the procedure:
Receptors from ROS cells are obtained by a procedure previously described (Dattatreyamurty, B., et al., (1986) J. Biol. Chem. 261.). […] In a typical assay, fixed amounts of ¹²⁵I-labeled sol. […] The assay incubations were carried out in a reaction volume of 300 μl with shaking for 22 hrs. at 4° C. […] The supernatants were aspirated and pellets washed before counting in a gamma counter (Packard Instr. Downers Grove, Ill.).

Assay [3] addresses B2. The experiment in a line: Scatchard analysis of BMP-7 binding to purified daf-4 ECD.

Molecule B1 yielded an IC50 in assay [1] of 10 µM.

Molecule B2 showed a Ka in assay [2] of 4.38e+09 M⁻¹.

B3: the Ka in assay [3] was 2.96e+10 M⁻¹.
